Experimental data taken from paper PMC6386767, “Characterization of recombinant fructose-1,6-bisphosphatase gene mutations: evidence of inhibition/activation of FBPase protein by gene mutation” (Bioscience Reports, 2019).

Target: T1, pig kidney FBPase L56A (Sus scrofa, UniProt P00636, L57A)
T1 construct: His6 (C); made in house; host or cells: Escherichia coli BL21 (DE3)
T1 sequence (P00636 1-338 L57A): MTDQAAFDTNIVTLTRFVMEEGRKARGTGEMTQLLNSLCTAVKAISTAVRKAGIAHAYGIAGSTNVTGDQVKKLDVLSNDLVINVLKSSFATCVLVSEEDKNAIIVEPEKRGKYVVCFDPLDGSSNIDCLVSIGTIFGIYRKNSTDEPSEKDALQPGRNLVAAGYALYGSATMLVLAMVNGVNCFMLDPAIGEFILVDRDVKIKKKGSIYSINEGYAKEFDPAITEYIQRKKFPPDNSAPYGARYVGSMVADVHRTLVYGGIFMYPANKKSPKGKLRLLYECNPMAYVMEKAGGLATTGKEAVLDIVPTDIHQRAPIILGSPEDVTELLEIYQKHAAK
Test: Differential scanning fluorimetry, L56A mutant
Format: binding
Details: enzyme L56A 5 µM, no ligand
Experimental: Differential scanning fluorimetry (DSF) assays were designed and implemented to run on WT and each mutant for the purpose of determining relative stabilities by melting point, and to detect structural changes in the enzymes upon ligand binding. Thermal shift assays were performed with a Light Cycler 96 System Real-Time PCR machine (Roche) using Sypro-Orange dye (Invitrogen) and thermal ramping (0.25°C per min between 20 and 85°C). […] Data were processed using the Boltzmann equation to generate sigmoidal denaturation curves, and average Tm/ΔTm values were calculated as previously described using GraphPad Prism software package.

B1: L56A: pig kidney FBPase mutant Leu^56 to alanine, near PFE tetramer interface site (protein, UniProt P00636 2-338, looked up, variant L56A)
Fructose-1,6-bisphosphatase 1: TDQAAFDTNIVTLTRFVMEEGRKARGTGEMTQLLNSLCTAVKAISTAVRKAGIAHAYGIAGSTNVTGDQVKKLDVLSNDLVINVLKSSFATCVLVSEEDKNAIIVEPEKRGKYVVCFDPLDGSSNIDCLVSIGTIFGIYRKNSTDEPSEKDALQPGRNLVAAGYALYGSATMLVLAMVNGVNCFMLDPAIGEFILVDRDVKIKKKGSIYSINEGYAKEFDPAITEYIQRKKFPPDNSAPYGARYVGSMVADVHRTLVYGGIFMYPANKKSPKGKLRLLYECNPMAYVMEKAGGLATTGKEAVLDIVPTDIHQRAPIILGSPEDVTELLEIYQKHAAK
  melting point, No Ligand: 56.0 (± 3.00) °C
